Assay [1] deals with T1, His-tagged recombinant Human FAPα (Acro Biosystems, Cat #FAP-H5244-100ug) (human, UniProt Q12884 26-760).
T1 construct: Bought reagent; not shown: His tag
T1 sequence (looked up): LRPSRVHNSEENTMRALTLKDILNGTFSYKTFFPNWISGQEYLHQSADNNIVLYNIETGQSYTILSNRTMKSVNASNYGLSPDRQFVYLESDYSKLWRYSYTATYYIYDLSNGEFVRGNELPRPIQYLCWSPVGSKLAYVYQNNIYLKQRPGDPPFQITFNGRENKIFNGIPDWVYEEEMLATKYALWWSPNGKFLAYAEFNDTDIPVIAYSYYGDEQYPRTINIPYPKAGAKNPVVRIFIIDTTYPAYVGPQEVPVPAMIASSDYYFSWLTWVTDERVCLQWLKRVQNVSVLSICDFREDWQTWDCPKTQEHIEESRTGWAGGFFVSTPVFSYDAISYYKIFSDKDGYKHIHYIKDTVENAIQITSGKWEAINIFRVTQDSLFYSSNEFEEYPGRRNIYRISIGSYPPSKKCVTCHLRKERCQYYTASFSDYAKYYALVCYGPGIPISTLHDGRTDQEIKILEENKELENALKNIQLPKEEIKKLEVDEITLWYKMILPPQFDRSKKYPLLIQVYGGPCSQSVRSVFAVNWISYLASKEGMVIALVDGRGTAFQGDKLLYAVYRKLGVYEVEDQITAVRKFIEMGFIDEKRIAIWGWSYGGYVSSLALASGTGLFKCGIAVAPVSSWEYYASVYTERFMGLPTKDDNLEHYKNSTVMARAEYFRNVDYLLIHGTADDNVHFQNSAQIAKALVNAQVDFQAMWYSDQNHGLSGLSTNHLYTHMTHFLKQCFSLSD
The experiment in a line: BLI, antigen immobilized on AR2G sensors. As for the experimental part: (§1) Experiments were carried out while shaking at 1,000 RPM at 30° C. Amine Reactive 2nd Generation (AR2G) biosensors (Sartorius, Cat #18-5092) were activated by reaction with 20 mM EDC (N-(3-Dimethylaminopropyl)-N′-ethylcarbodiimide hydrochloride) (Sigma-Aldrich, Cat #03449) and 10 mM s-NHS (N-hydroxysulfosuccinimide sodium salt) (Sigma-Aldrich, Cat #56485) for 300 s. The activated AR2G sensors were loaded with 2.5 μg/mL His-tagged recombinant Human FAPα (Acro Biosystems, Cat #FAP-H5244-100ug) in 10 mM Sodium Acetate pH 5.0 (Sartorius, Cat #18-1069) or 2.5 μg/mL His-tagged recombinant Cynomolgus FAPα (Acro Biosystems, Cat #FAP-C52H3-100ug) in 10 mM Sodium Acetate pH 5.0 for 600 s and quenched with 1 M ethanolamine pH 8.5 (Sartorius Cat #18-1071) for 300 s. After a baseline measurement in Sample Diluent (1000 s; Sartorius, Cat #18-1104), the association (100 s) and dissociation (4,000 s) of functionally monovalent antibody was determined using a concentration range of 0.78-800 nM with two-fold dilution steps in Sample Diluent. The molecular mass of the antibodies used for the calculations was calculated from the sequences.
(§2) The Y-axis was aligned to the last 10 s of the baseline; Interstep Correction alignment to dissociation and Savitzky-Golay filtering were applied. Data traces with a response <0.05 nm were excluded from analysis. […]
A general note: Biolayer interferometry detects binding as a change in optical thickness at a sensor tip.

For assay [2], the target named is T2, His-tagged recombinant Cynomolgus FAPα (Acro Biosystems, Cat #FAP-C52H3-100ug) (cynomolgus monkey, UniProt A0A2K5VGF4 26-760).
T2 construct: Bought reagent; also called recombinant cynomolgus monkey FAPα; not shown: His tag of the vendor's construct (Acro Biosystems FAP-C52H3)
T2 sequence: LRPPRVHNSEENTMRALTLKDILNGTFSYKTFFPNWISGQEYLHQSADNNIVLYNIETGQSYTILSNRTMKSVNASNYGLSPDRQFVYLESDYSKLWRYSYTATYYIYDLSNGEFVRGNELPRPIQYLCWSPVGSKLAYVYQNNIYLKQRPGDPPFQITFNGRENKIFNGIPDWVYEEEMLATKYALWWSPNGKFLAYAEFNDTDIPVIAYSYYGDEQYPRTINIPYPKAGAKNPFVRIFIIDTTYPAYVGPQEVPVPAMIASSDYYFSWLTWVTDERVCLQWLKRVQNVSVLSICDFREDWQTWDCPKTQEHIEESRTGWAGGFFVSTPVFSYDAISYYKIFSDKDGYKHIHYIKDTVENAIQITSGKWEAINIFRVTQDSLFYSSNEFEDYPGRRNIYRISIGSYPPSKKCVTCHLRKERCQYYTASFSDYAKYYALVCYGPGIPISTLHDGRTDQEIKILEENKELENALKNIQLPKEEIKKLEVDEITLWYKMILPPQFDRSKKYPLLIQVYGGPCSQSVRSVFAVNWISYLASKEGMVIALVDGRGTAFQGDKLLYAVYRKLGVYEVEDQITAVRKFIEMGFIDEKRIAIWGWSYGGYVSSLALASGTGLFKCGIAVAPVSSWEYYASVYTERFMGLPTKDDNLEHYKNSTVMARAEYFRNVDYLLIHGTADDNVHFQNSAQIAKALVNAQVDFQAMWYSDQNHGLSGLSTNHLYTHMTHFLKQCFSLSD
Description: BLI, antigen immobilized on AR2G sensors. The protocol:
as §1, §2

B1: BisG1-b12-FERL/DR4-FERR (bispecific antibody, human IgG1, kappa, lambda)
heavy 1: QVQLVQSGAEVKKPGASVKVSCQASGYRFSNFVIHWVRQAPGQRFEWMGWINPYNGNKEFSAKFQDRVTFTADTSANTAYMELRSLRSADTAVYYCARVGPYSWDDSPQDNYYMDVWGKGTTVIVSSASTKGPSVFPLAPSSKSTSGGTAALGCLVKDYFPEPVTVSWNSGALTSGVHTFPAVLQSSGLYSLSSVVTVPSSSLGTQTYICNVNHKPSNTKVDKRVEPKSCDKTHTCPPCPAPEFERGPSVFLFPPKPKDTLMISRTPEVTCVVVDVSHEDPEVKFNWYVDGVEVHNAKTKPREEQYNSTYRVVSVLTVLHQDWLNGKEYKCKVSNKALPAPIEKTISKAKGQPREPQVYTLPPSREEMTKNQVSLTCLVKGFYPSDIAVEWESNGQPENNYKTTPPVLDSDGSFLLYSKLTVDKSRWQQGNVFSCSVMHEALHNHYTQKSLSLSPG
light 1: EIVLTQSPGTLSLSPGERATFSCRSSHSIRSRRVAWYQHKPGQAPRLVIHGVSNRASGISDRFSGSGSGTDFTLTITRVEPEDFALYYCQVYGASSYTFGQGTKLERKRTVAAPSVFIFPPSDEQLKSGTASVVCLLNNFYPREAKVQWKVDNALQSGNSQESVTEQDSKDSTYSLSSTLTLSKADYEKHKVYACEVTHQGLSSPVTKSFNRGEC
heavy 2: QVQLQESGPGLVKPSGTLSLTCAVSGGSISSYSWWSWIRQPPGKGLEWIGELYHSGSTNYNPSLKSRVTISVDKSKNQFSLKLRSVTAADTAVYYCVRGVATIDYWGQGTLVTVSSASTKGPSVFPLAPSSKSTSGGTAALGCLVKDYFPEPVTVSWNSGALTSGVHTFPAVLQSSGLYSLSSVVTVPSSSLGTQTYICNVNHKPSNTKVDKRVEPKSCDKTHTCPPCPAPEFERGPSVFLFPPKPKDTLMISRTPEVTCVVVDVSHEDPEVKFNWYVDGVEVHNAKTKPREEQYNSTYRVVSVLTVLHQDWLNGKEYKCKVSNKALPAPIEKTISKAKGQPREPQVYTLPPSREEMTKNQVSLTCLVKGFYPSDIAVEWESNGQPENNYKTTPPVLDSDGSFFLYSRLTVDKSRWQQGNVFSCSVMHEALHNHYTQKSLSLSPG
light 2: QSALTQPPSASGSPGQSVTISCTGTSSDVGGYNFVSWYQQDPGKAPKLLIYEVTKRPSGVPDRFSGSKSGNTASLTVSGLQAEDEADYYCSSYAGSNNVMFGGGTKLTVLGQPKAAPSVTLFPPSSEELQANKATLVCLISDFYPGAVTVAWKADSSPVKAGVETTTPSKQSNNKYAASSYLSLTPEQWKSHRSYSCQVTHEGSTVEKTVAPTECS
notes: Fab-arm exchange of IgG1-b12-FERL and IgG1-DR4-FERR; also called bsIgG1-ctrl-FERLxDR4-FERR
On to B1, for which the binding result in assay [1] and in assay [2] was “no binding (tested: 800 nM)” throughout.

The values are drawn from US20250002610A1 (Genmab, published 2025).
